US20260234290, “Antibodies to Stat3 Decoy Oligonucleotide” (The Regents of the University of California, published 2026)

How the values were obtained:
[1] = molecular target: 4E4 Fab (UniProt P01764;A0A075B6I4 SEQ:1-116,SEQ:1-110); assay: BLI; 2 uM Fab; RT; described as weak binding; details: myc tag; Ni-NTA purified from E. coli BL21(DE3) periplasm; label: biotin; cyclic 15-mer double-stranded decoy
Description: (§1) All buffers were filter sterilized with […] filters prior to preparing samples. Black 384 well microplates were used to set up BLI plates and streptavidin tips were purchased by Sartorius. Kinetic constants of Fabs were determined by Octet RED384 system with continuous shaking at 1000 rpm in RT. Prior to the experiment, biological tips (model name) were presoaked in buffer to allow for equilibration for 1 hour. Data were analyzed using 1:1 interaction model on the ForteBio data analysis software 12.0.

[2] = molecular target: SP1-B3 Fab (UniProt A0A0B4J1U7;A0A087WSX0 SEQ:1-120,SEQ:1-115); assay: BLI; 2 uM Fab; CS3D on streptavidin tips; RT; RAPID-sorted clone; details: myc tag; Ni-NTA purified from E. coli BL21(DE3) periplasm; label: biotin; cyclic 15-mer double-stranded decoy
Description: as §1

Sequence of SP1-B3 Fab (A0A0B4J1U7 other isoform, or with tags, fused parts or gaps, chain 1 of 2): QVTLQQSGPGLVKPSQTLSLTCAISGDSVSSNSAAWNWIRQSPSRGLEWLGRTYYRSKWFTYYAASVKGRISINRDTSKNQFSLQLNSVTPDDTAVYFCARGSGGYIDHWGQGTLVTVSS
Sequence of SP1-B3 Fab (A0A087WSX0 other isoform, or with tags, fused parts or gaps, chain 2 of 2): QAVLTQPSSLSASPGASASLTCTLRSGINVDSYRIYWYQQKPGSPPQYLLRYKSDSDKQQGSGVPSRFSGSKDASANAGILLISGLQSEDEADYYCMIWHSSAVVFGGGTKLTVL
Sequence of 4E4 Fab (P01764 other isoform, or with tags, fused parts or gaps, chain 1 of 2): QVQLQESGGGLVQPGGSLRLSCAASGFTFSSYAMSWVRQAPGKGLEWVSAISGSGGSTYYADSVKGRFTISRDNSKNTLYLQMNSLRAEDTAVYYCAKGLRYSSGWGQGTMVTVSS
Sequence of 4E4 Fab (A0A075B6I4 other isoform, or with tags, fused parts or gaps, chain 2 of 2): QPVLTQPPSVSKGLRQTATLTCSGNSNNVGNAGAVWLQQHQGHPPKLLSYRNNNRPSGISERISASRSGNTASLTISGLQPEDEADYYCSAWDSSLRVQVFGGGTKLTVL

B1: CS3D (cyclic STAT3 decoy) (dsDNA)
DNA 1: CATTTCCCGTAAATC
DNA 2: GATTTACGGGAAATG
koff [1]: 0.111 s⁻¹ | koff [2]: 0.0211 s⁻¹
